Sequences and labels used below:
T1: factor XII purified from human plasma (human, UniProt P00748 20-615)
T1 construct: mature; also called FXII
T1 sequence (looked up): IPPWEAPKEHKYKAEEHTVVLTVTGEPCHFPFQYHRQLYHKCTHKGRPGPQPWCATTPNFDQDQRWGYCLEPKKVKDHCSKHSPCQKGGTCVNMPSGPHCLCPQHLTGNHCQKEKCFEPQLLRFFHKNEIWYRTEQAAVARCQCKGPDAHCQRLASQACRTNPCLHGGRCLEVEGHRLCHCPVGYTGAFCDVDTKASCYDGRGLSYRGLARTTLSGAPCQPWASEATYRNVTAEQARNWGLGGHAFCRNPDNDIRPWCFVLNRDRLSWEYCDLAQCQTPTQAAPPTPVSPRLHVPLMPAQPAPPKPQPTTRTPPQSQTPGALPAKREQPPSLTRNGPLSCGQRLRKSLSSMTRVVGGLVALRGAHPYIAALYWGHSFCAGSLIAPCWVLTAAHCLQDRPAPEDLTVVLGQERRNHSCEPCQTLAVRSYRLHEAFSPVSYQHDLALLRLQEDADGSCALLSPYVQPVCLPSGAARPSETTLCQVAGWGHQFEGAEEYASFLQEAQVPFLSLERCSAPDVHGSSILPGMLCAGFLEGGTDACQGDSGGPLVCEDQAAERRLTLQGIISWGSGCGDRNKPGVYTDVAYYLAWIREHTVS

B1: recombinant human β2-glycoprotein I (other, UniProt P02749 20-345, looked up)
chain: GRTCPKPDDLPFSTVVPLKTFYEPGEEITYSCKPGYVSRGGMRKFICPLTGLWPINTLKCTPRVCPFAGILENGAVRYTTFEYPNTISFSCNTGFYLNGADSAKCTEEGKWSPELPVCAPIICPPPSIPTFATLRVYKPSAGNNSLYRDTAVFECLPQHAMFGNDTITCTTHGNWTKLPECREVKCPFPSRPDNGFVNYPAKPTLYYKDKATFGCHDGYSLDGPEEIECTKLGNWSAMPSCKASCKVPVKKATVVYQGERVKIQEKFKNGMLHGDKVSFFCKNKEKKCSYTEDAQCIDGTIEVPKCFKEHSSLAFWKTDASDVKPC
notes: also called recombinant β2GPI; rec. β2GPI
B2: chemically synthesized F domain of hepatocyte growth factor activator (HGFA F) (other)
chain: EKCFDETRYEYLEGGDRWARVRQGHVEQCECFGGRTWCEGTK
modifications: added carboxy-terminal lysine residue is acetylated
notes: domain: F domain; Made by native chemical ligation of two peptides; also called HGFA F domain
B3: chemically synthesized F domain of tPA (tPA F) (other, human)
chain: VICRDEKTQMIYQQHQSWLRPVLRSNRVEYCWCNSGRAQCHSVK
modifications: cysteine pairing not given here; also: added C-terminal Lys acetylated or biotinylated
notes: domain: F domain; Immobilized on the second Biacore chip; also called tPA F domain
B4: abciximab (ReoPro) (Fab, V domains shown)
VH: EVQLQQSGTVLARPGASVKMSCEASGYTFTNYWMHWVKQRPGQGLEWIGAIYPGNSDTSYIQKFKGKAKLTAVTSTTSVYMELSSLTNEDSAVYYCTLYDGYYVFAYWGQGTLVTVSA
VL: EIVLTQSPVTLSVTPGDSVSLSCRASRDISNNLHWFQQTSHESPRLLIKYASQSMSGIPSRFSGSGSGTDFTLSINSVETEDFGMYFCQQTNSWPYTFGGGTKLEIK
B5: tissue-type plasminogen activator (tPA) (enzyme, human, UniProt P00750 36-562, looked up)
chain: SYQVICRDEKTQMIYQQHQSWLRPVLRSNRVEYCWCNSGRAQCHSVPVKSCSEPRCFNGGTCQQALYFSDFVCQCPEGFAGKCCEIDTRATCYEDQGISYRGTWSTAESGAECTNWNSSALAQKPYSGRRPDAIRLGLGNHNYCRNPDRDSKPWCYVFKAGKYSSEFCSTPACSEGNSDCYFGNGSAYRGTHSLTESGASCLPWNSMILIGKVYTAQNPSAQALGLGKHNYCRNPDGDAKPWCHVLKNRRLTWEYCDVPSCSTCGLRQYSQPQFRIKGGLFADIASHPWQAAIFAKHRRSPGERFLCGGILISSCWILSAAHCFQERFPPHHLTVILGRTYRVVPGEEEQKFEVEKYIVHKEFDDDTYDNDIALLQLKSDSSRCAQESSVVRTVCLPPADLQLPDWTECELSGYGKHEALSPFYSERLKEAHVRLYPSSRCTSQHLLNRTVTDNMLCAGDTRSGGPQANLHDACQGDSGGPLVCLNDGRMTLVGIISWGLGCGQKDVPGVYTKVTNYLDWIRDNMRP
notes: Full-length recombinant tPA; also called Actilyse; Alteplase
B6: endostatin (EntreMed) (other, UniProt P39060 1572-1754, looked up)
chain: HSHRDFQPVLHLVALNSPLSGGMRGIRGADFQCFQQARAVGLAGTFRAFLSSRLQDLYSIVRRADRAAVPIVNLKDELLFPSWEALFSGSEGPLKPGARIFSFDGKDVLRHPTWPQKSVWHGSDPNGRRLTESYCETWRTEAPSATGQASSLLGGRLLGQSAASCHHAYIVLCIENSFMTASK
notes: also called protein therapeutic endostatin

Test [1] has as its target T2, fibronectin F4-5 domains with carboxy-terminal His6-tag, expressed in S. cerevisiae (Fn F4-5-His6) (human, UniProt P02751 182-276).
T2 construct: range 182-276; also called Fn F4-5 doublet
The test is described as follows: SPR (Biacore), Fn F4-5 on CM5 chip, concentration of ligand at half maximum binding. The procedure:
(§1) Now, the running buffer was 10 mM HEPES pH 7.4, 140 mM NaCl, 1.5 mM CaCl₂, 10 mM εACA, 0.05% Tween-20. Regeneration buffer was running buffer supplemented with 1 M NaCl.

In test [2] the target is B5. The test is described as follows: ELISA, tPA immobilized, β2GPI concentration series. The procedure:
(§2) Binding of β₂GPI was assessed with monoclonal antibody 2B2¹³.
(§3) C. […] D. Western blot incubated with anti-human factor XII antibody. […] Eluted fractions are analyzed on Western blot after SDS-PA electrophoresis. […] The molecular mass of factor XII is 80 kDa. […] Anti-β₂GPI auto-antibodies were purified from plasma of patients with the auto-immune disease Anti-phospholipid syndrome. […] Signals are corrected for background fluorescence of CL, DXS, ThT and buffer.

Test [3] has as its target T1, factor XII purified from human plasma. The test is described as follows: ELISA, factor XII coated, β2GPI concentration series, antibody 2B2. The procedure:
as §2, §3

Test [4] concerns the target B5. As to the kind of experiment: ELISA, tPA coated, β2GPI concentration series, antibody 2B2. The procedure:
as §2, §3

Test [5] has as its target T1, factor XII purified from human plasma. As to the kind of experiment: ELISA, factor XII immobilized, β2GPI concentration series. The procedure:
as §2, §3

In test [6] the target is B1. As to the kind of experiment: SPR (Biacore), HGFA F immobilized on CM5 chip. The procedure:
as §1

The target of test [7] is B6. The test is described as follows: SPR (Biacore), HGFA F immobilized on CM5 chip. The procedure:
as §1

Test [8] addresses B1. As to the kind of experiment: SPR (Biacore), tPA F immobilized on CM5 chip. The procedure: as §1
The target in test [9] is B6. The test is described as follows: SPR (Biacore), tPA F immobilized on CM5 chip. The procedure: as §1
Test [10] deals with B5. The test is described as follows: cell-based or functional assay.
Test [11] addresses B5. The test is described as follows: ELISA, therapeutic coated, tPA concentration series, one-site binding fit. The procedure: (§4) Nunc Immobilizer plates (Nalge Nunc, #436013, Rochester, N.Y., USA) were coated with 50 μL containing 5 μg/mL of sample protein (unless indicated otherwise) in 100 mM NaHCO₃, pH 9.6, 0.05% m/v NaN₃ for 1 hour at room temperature. Plates were washed twice with Tris buffered saline pH 7.2 containing 0.1% Tween20 (TBST) and blocked with PBS containing 1% Tween20 for 1 hour at room temperature. […] Plates were washed five times with TBST and incubated with peroxidase labeled anti-mouse immunoglobulins (RAMPO; DAKOCytomation, Glostrup, Denmark) diluted 1:3000 in PBST for 30 minutes at room temperature. Plates were washed five times with PBS 0.1% Tween20, and stained with 100 μL/well of tetramethyl-benzidine (TMB) substrate (Biosource Europe, Nivelles, Belgium). The reaction was terminated with 50 μL/well of 2 M H₂SO₄ and substrate conversion was read at 450 nm on a Spectramax340 microplate reader. Curves were fitted with a one-site binding model (GraphPad Prism version 4.02 for Windows, Graphpad Software, CA, USA) from which Kd and Bmax were determined.

Test [12] has as its target T3, advanced glycation end-product modified bovine serum albumin (albumin-AGE) (bovine, UniProt P02769 25-607, glycated (advanced glycation end-products; 1 M glucose-6-phosphate, 37 °C, up to 23 weeks); sites not stated).
T3 construct: Misfolded, cross-β structure containing preparation; also called BSA-AGE; glycated BSA
The test is described as follows: SPR (Biacore), immobilized tPA. The procedure:
EDC, NHS and ethanolamine hydrochloride were obtained from Biacore. […] The flow rate was 10 μl min.⁻¹, the injection time was 120″. The running buffer during immobilization was 10 mM HEPES pH 7.4, 140 mM NaCl. Buffers were filtrated on a 0.22 μm filter (white GSWP, 47 mm, Millipore) and degassed at room temperature. For subsequent binding experiments, the running buffer was 10 mM HEPES pH 7.4, 140 mM NaCl, 1.5 mM CaCl₂, 10 mM εACA, 0.005% Tween-20. […] After each injection of protein, the chip was regenerated with 0.1 M H₃PO₄ pH 1.0.

Test [13] deals with T4, rapid acting human insulin analogue (NovoRapid Flexpen) (human, UniProt P01308 90-110; P01308 25-54).
T4 construct: mature; also called Insulin Aspart; Novo Rapid insulin
The test is described as follows: ELISA, therapeutic coated, tPA concentration series, one-site binding fit. The procedure:
as §4

Test [14] addresses T5, human albumin (Cealb) (human, UniProt P02768 25-609).
T5 construct: mature
The test is described as above. The procedure:
as §4

In test [15] the target is B4. Described as above. The procedure: as §4
In test [16] the target is T6, recombinant human Zn2+-chelated insulin (Monotard) (human, UniProt P01308 90-110; P01308 25-54).
T6 construct: mature; Zinc suspension; also called zinc-insulin; zinc-chelated insulin
The description is as above. The procedure: as §4

Ends that are not written are not given here.

T2 sequence (P02751 other isoform, or with tags, fused parts or gaps limits assumed): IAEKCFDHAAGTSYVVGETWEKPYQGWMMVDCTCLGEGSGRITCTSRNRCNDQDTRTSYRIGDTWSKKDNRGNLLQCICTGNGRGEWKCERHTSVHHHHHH
T3 sequence (P02769 25-607 limits assumed): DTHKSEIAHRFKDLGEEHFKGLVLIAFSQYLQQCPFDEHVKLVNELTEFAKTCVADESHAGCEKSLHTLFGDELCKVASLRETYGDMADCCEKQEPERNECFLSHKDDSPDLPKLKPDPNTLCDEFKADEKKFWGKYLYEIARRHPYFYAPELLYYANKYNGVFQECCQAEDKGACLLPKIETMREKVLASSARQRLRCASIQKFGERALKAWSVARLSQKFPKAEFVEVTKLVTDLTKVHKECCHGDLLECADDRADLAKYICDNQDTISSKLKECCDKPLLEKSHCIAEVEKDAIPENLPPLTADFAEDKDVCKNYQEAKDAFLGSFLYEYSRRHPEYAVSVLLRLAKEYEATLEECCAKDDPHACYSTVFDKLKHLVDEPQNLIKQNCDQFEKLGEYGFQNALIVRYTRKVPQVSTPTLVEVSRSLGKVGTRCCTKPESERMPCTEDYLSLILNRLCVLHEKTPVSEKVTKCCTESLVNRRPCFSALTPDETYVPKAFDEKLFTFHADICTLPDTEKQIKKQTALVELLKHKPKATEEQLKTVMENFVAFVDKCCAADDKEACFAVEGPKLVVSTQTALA

Turning to B1, the EC50 in [1] was 165 nM. Further, the Kd in [2] was found to be 2.3 µg/mL; in [3] it was 20 nM; in test [4], 51 nM; in test [5] it was 0.9 µg/mL.

As for B2, the values for the binding result in test [6] and in [7] were “no binding (tested: 0-300 nM)” and “no binding (tested: 0-800 nM)”, respectively.

As to B3, the binding result in test [8] is on record as “no binding (tested: 0-300 nM)”; in test [9], “no binding (tested: 0-800 nM)”.

In the case of B4, the “tPA activation, Max. Activation (%)” value in [10] worked out at 0%. In addition, in test [11], the Kd amounted to 216 nM.

B5: in test [12], the binding result is reported as “binds”. In addition, the “Bmax (OD450 nm)” value in [13] was 3.62 OD450 nm; in test [14], 1.23 OD450 nm; in test [15] it was 0.533 OD450 nm; in [16], 0.756 OD450 nm.

B6 registered an EC50 in test [1] of 800 nM.

These data come from patent publication US20080207488A1 (published 2008).
